Here are results for one molecule from patent US20250269018A1, “COMBINED CANCER THERAPY WITH AN EPITHELIAL CELL ADHESION MOLECULE (EPCAM) INHIBITOR AND A HEPATOCYTE GROWTH FACTOR RECEPTOR (HGFR) INHIBITOR” (ACADEMIA SINICA, priority 2021, published 2025).

One experiment deals with T1, EpEX binding to HGFR (Homo sapiens, UniProt P16422).
T1 construct: the soluble extracellular domain of EpCAM (EpEX); His; made in house; host or cells: Expi293
T1 sequence (P16422 24-265 limits assumed): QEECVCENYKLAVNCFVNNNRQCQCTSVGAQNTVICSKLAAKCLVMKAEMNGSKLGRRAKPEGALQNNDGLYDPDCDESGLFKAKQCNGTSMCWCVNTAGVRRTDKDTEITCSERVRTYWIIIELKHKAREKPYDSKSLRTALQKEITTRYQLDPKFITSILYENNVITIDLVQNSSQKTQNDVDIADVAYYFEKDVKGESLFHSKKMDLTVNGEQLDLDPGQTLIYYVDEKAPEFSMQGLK
Nature of the experiment: ELISA of EpEX-His binding to HGFR-Fc-coated plates. To be noted: EpEX-His 2 μg/ml with 1 μg antibody; HGFR-Fc 1 μg/ml coated; FIG. 6F. Here is the method:
FIGS. 6A to 6J. EpAb2-6 inhibits EpCAM and HGFR signaling and promotes active β-catenin and Snail protein degradation via activating GSK3β. (FIG. 6A) HCT116 cells were treated with 10 μg/ml control IgG (normal mouse IgG, NMIgG) or mouse EpAb2-6 (EpAb2-6) for 16 h, followed by treatment with EpEX-His (50 nM) for 15 min. Levels of phosphorylated HGFR, AKT, FAK, GSK3β, ERK, ADAM17, and presenilin 2 were examined by Western blotting. (FIG. 6B) HCT116 cells were treated with 10 μg/ml control IgG or mouse EpAb2-6 for 16 h, followed by treatment without or with HGF (0.5 nM) for 15 min. Levels of phosphorylated HGFR, AKT, and ERK were examined by Western blotting. HCT116 cells were treated with mouse EpAb2-6 (10 μg/ml) and HGF (0.5 nM). […] (FIG. 6D) Cell invasion was assessed by a Transwell assay with matrigel after 24 h. […] (FIG. 6F) EpEX-His (2 μg/ml) co-treated with 1 μg IgG or EpAb2-6 was added to HGFR-Fc-coated (1 μg/ml) ELISA plates and detected by TMB colorimetric peroxidase assay. (FIG. 6G) EMT associated protein levels were detected by Western blotting in HCT116 cells treated with NMIgG or EpAb2-6 for 24 h. (FIG. 6H) Protein expression was analyzed by Western blotting in HCT116 cells after treatment with EpAb2-6 and 2 μM GSK3β inhibitor (BIO) for 24 h. Quantification of the normalized protein expression in the bottom panel. […]
On the technique in general: An ELISA detects its analyte on a solid surface through an enzyme-linked reagent.

Another experiment concerns the target T2, EpCAM (Homo sapiens, UniProt P16422).
T2 sequence (P16422 24-314): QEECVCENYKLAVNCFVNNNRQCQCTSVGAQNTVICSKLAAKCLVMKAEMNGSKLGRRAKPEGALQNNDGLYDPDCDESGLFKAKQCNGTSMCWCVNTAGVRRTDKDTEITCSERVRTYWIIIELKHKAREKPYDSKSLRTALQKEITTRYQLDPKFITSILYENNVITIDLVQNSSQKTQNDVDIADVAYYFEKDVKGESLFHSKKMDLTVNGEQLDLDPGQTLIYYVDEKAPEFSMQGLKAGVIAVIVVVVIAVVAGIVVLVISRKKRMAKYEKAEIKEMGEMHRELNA
Nature of the experiment: Antibody binding to EpCAM wild-type and mutants expressed in HEK293T cells (immunofluorescence, flow cytometry, cellular ELISA). The conditions noted are these: conclusion from deletion and point mutants. Here is the method: FIGS. 8A to 8G. EpAb2-6 binds to both EGF-like domain I and II of EpCAM. HEK293T cells were transfected with full length or EGF like-domain deletion mutant EpCAM-V5. Antibody binding was assessed by (FIG. 8A) Western blotting, (FIG. 8B) flow cytometry, and (FIG. 8C) immunofluorescence. (FIG. 8D) EpCAM mutants were constructed with amino acid substitutions in the EGF-I (Y32A) and EGF-II (L94A, Y95A, or D96A) domains. EpCAM wild-type and mutant proteins were expressed in HEK293T cells. Binding of MT201, EpAb2-6 and EpAb23-1 to EpCAM wild-type and mutants were evaluated by (FIG. 8E) immunofluorescence, (FIG. 8F) flow cytometry, and (FIG. 8G) cellular ELISA.
A previous study identified the binding epitope of EpAb2-6 antibody as the LYD motif in EpCAM, which corresponds to amino acid residues 94-96; in particular, residue 95 (Y95) plays a major role in EpAb2-6 binding (Liao et al., 2015). […] Therefore, we wanted to determine whether the antibody binds to EpCAM at both EGF-like domains of EpEX (FIG. 8A, FIG. 8B, FIG. 8C). To confirm that EpAb2-6 recognizes the LYD motif in EpCAM, we constructed cDNA sequences encoding the first (aa 27-59; EGF-I domain) and second (aa 66-135; EGF-II/TY domain) EGF-like repeats of EpCAM. PCR-based site-directed mutagenesis was then used to introduce mutations into each domain (FIG. 8D). The reactivity of EpAb2-6 antibody toward these EpCAM mutants was evaluated by immunofluorescence (FIG. 8E), flow cytometry (FIG. 8F), and cellular ELISA (FIG. 8G).
A general note: A flow cytometer gives signals particle by particle.

B1: EpAb2-6: anti-EpCAM neutralizing monoclonal antibody targeting EpEX; VH SEQ ID NO: 15, VL SEQ ID NO: 16 (antibody, listed as Homo sapiens, V domains shown)
VH: VKLQESGPELKKPGETVKISCKASGYTFTDYSMHWVKQAPGKGLKWMGWINTETGEPTYADDFKGRFAFSLETSASTAYLQINNLKNEDTATYFCARTAVYWGQGTTVTVSS
VL: DIQMTQSPSSLSASLGERVSLTCRASQEISVSLSWLQQEPDGTIKRLIYATSTLDSGVPKRFSGSRSGSDYSLTISSLESEDFVDYYCLQYASYPWTFGGGTKLEIKRADAAPTVS
Turning to B1, the “EpEX binding to HGFR” value with EpEX binding to HGFR was “inhibit EpEX binding to HGFR”. In addition, the “EpEX domains and residues bound” value with EpCAM is “binds to the EGF-I and EGF-II domains of EpEX, respectively targeting amino acid residues Y32 and Y95”.
